Experimental data published in patent US20250074997A1 (PERSONGEN BIOTHERAPEUTICS SUZHOU, published 2025).

B1: pcDNA3.4-SDAB20-7-26-2-1-F9-hFC (Fc fusion)
chain: QSLLVESGGGLVQPGGSLRLSCAASGFSLDYYAIGWFRQAPGKEREEVSCISSGGGSTNYADSVKGRFTISRDNAKNTVYLQMNSLKPEDTAVYYCAAKRNFMLYLVQCPYEYDYWGQGTQVTVSS
notes: also called 1-F09; not shown: human IgG1 Fc from vector pcDNA3.4-hIgG1-Fc2
B2: pcDNA3.4-SDAB20-7-26-2-3-E04-hFC (Fc fusion)
chain: QLRLVESGGGLVQPGGSLRLSCAASGFTLDYYDIGWFRQAPGKEREGVSCIGRISGDTDYAESVKGRFTASRDNAKNTVYLQMNSLKPEDTAVYYCAAERRFFGGGCRRSVDNMDSWGKGTLVTVSS
notes: Llama VHH fused in tandem with human IgG1 Fc, expressed in 293 cells, purified on protein A; not shown: human IgG1 Fc from vector pcDNA3.4-hIgG1-Fc2
B3: pcDNA3.4-SDAB20-7-26-2-3-H02-hFC (Fc fusion)
chain: QLTLVESGGGLVQPGGSLRLSCAASEFTLDYYAIGWFRQAPGKEREGVSCISSSDGSTYYADSVKGRFTISRDNAKNTVYLQMNSLKPEDTAVYYCAIGGLLLLRLWERGNYEFDYWGQGTQVTVSS
notes: as for B2
B4: phage mono clone 1-H8 (VHH)
VHH: QRQLVESGGGLVQPGGSLRLSCAVSEFTLDYYAIGWFRQAPGKEREGVSCISSSGGSTVYADSVKGRFTISADNAKNTVYLQMNSLKPEDTAVYYCAAGSLLLFRLCVSRLYEYDYWGQGTQVTVSS
notes: the phage coat fusion part is not described
B5: phage mono clone 3-E03 (VHH)
VHH: AVQLVDSGGGLVQAGGSLRLSCAASGIRLSSNAMAWYRQAPGKQRGLVALITSDGTTNYVDSVKGRFTISRDNAKNTVYLQMNSLKPEDTAVYYCKREPYLSTRGYWGQGTQVTVSS
notes: as for B4
B6: phage mono clone 3-E04 (VHH)
VHH: QLRLVESGGGLVQPGGSLRLSCAASGFTLDYYDIGWFRQAPGKEREGVSCIGRISGDTDYAESVKGRFTASRDNAKNTVYLQMNSLKPEDTAVYYCAAERRFFGGGCRRSVDNMDSWGKGTLVTVSS
notes: as for B4
B7: phage mono clone 3-E06 (VHH)
VHH: EVQLVESGGGLVQAGGSLTLSCVASASGSILRLNAMGWYRQAPAKQRELVALITRDGSTNYPDSVKGRFTISRDNAKNTVYLQMSSLSPEDTAVYYCYVQNHYSNYWGQGTQVTVSS
notes: as for B4
B8: phage mono clone 3-E09 (VHH)
VHH: AVQLVDSGGGLVQPGGSLRLSCAASGFTFSSYAMGWARQVPGKGLEWVSIIYRDGNTYYTDSVKGRFTISRDNAKNTVYLQMNSLKPEDTAVYYCAPVETVAARRRDYWGQGTQVNVSS
notes: as for B4
B9: phage mono clone 3-E10 (VHH)
VHH: AVQLVDSGGGLVQPGGSLRLSCAASGFTFSSYAMGWARQVPGKGLEWVSIIYRDGNTYYTDSVKGRFTISRDNAKNTVYLQMNSLKPEDTAVYYCAPVETVAARRRDYWGQGTQVNVSS
notes: as for B4
B10: phage mono clone 3-G07 (VHH)
VHH: RLQLVESGGGLVQPGGSLRLSCAVSGKALDYYSIGWFRQAPRKQREGVSCISSSGGSTNYADSVKGRFTISRDNAKDTVYLQMNSLKPEDTADYYCAVVSTVLCGLGIYEYDYWGQGTLVTVSS
notes: as for B4
B11: phage mono clone 3-H02 (VHH)
VHH: QLTLVESGGGLVQPGGSLRLSCAASEFTLDYYAIGWFRQAPGKEREGVSCISSSDGSTYYADSVKGRFTISRDNAKNTVYLQMNSLKPEDTAVYYCAIGGLLLLRLWERGNYEFDYWGQGTQVTVSS
notes: as for B4
B12: phage mono clone 1-B4 (VHH)
VHH: QVQLVESGGGLVQPGGSLRLSCAASGFTLDYYAIGWFRQAPGKEREGVSCISSTGGSTNYADSVKGRFTISRDNAKNTVYLQMNSLKPEDTAVYYCAADTHYLTVCYDRLGFDYWGQGTQVTVSS
notes: as for B4
B13: phage mono clone 1-F1 (VHH)
VHH: EVQLAESGGGLVQPGGSLRLSCAASGFTFSSYTMSWVRQAPGKGLEWVSAIDSDGGVTSYADSVKGRFTISRDNAKNTLYLQMNSLKPEDTAVYYCANGGYCSGYGCYPRLLSQGTLVTVSS
notes: as for B4
B14: phage mono clone 1-F9 (VHH)
VHH: QSLLVESGGGLVQPGGSLRLSCAASGFSLDYYAIGWFRQAPGKEREEVSCISSGGGSTNYADSVKGRFTISRDNAKNTVYLQMNSLKPEDTAVYYCAAKRNFMLYLVQCPYEYDYWGQGTQVTVSS
notes: the phage coat fusion part is not described; also called 1-F09
B15: phage mono clone 1-F10 (VHH)
VHH: QVQLVESGGGLVQPGGSLRLSCAASGSILSIRAVGWYRQAPGKQRELVALITSDGTTHYALSVKGRFTISRDNAKTTVYLQMNSLKPEDTAVYYCNREDYARRYWGQGTQVTVSS
notes: as for B4
B16: phage mono clone 1-G1 (VHH)
VHH: QVQLVESGGGLVQPGGSLRLSCAASGNSLRRYAIGWFRQAPGKEREGVVCISTVGGSSYYVDSVKGRFTISEDNVKNTAYLQMNSLEPEDTAVYYCAAANRLYCPAYGSAGYDYWGQGTQVTVSS
notes: as for B4
B17: phage mono clone 1-G2 (VHH)
VHH: QSQLAESGGGLVQPGGSLRLSCVASRFSLDAYAIAWFRQAPGKEREGVSCISSIGGRTNYADPVKGRFTISRDNAKNTAYLEMNSLQPEDTAVYYCAAVQRLFGPCLLSGGMDYWGKGTPVTVSS
notes: as for B4
B18: phage mono clone 1-H2 (VHH)
VHH: QVQLVESGGGLVQPGGSLRLSCAASGSTLDYYAIAWFRQAPGKGREGVSCISSSGGRTNYADSVKGRFTVSRDNVKNTVYLQMNSLKPEDTAVYNCAAGGDLSCYGTPTSIWQYDLWGQGTQVTVAS
notes: as for B4

The binders below were run against T1, UPAR-His recombinant protein (UniProt Q03405 23-303) (assay: SPR (BiaCore T200), UPAR recombinant protein immobilised on CM5 chip, antibody as mobile phase).
T1 construct: range 23-303; Expressed in 293 cells, purified on Ni-NTA; Biotinylated in the uPA ELISA; also called UPAR-His antigen; biotinUPAR-His; not shown: C-terminal His tag
T1 sequence (Q03405 23-303 limits assumed): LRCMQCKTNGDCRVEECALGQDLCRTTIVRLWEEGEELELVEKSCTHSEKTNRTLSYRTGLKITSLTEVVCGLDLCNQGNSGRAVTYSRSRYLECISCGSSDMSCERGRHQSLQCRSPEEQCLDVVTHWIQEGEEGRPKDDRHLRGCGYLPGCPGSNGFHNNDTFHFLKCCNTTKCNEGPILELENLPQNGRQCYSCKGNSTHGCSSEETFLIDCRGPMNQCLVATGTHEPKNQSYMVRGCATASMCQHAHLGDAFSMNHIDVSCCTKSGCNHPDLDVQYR

Row | Binder | Kd [nM] | koff [s⁻¹] | kon [M⁻¹ s⁻¹]
1 | B1 | 1.49 | 0.000101 | 67600
2 | B2 | 22.3 | 0.00139 | 62700
3 | B3 | 1.31 | 0.000173 | 132000

Each binder was assayed against T1, UPAR-His recombinant protein (assay: phage ELISA, plate coated with UPAR-His, HRP-anti-M13).

Row | Binder | S/N ratio
4 | B4 | > 5
5 | B5 | > 5
6 | B6 | > 5
7 | B7 | > 5
8 | B8 | > 5
9 | B9 | > 5
10 | B10 | > 5
11 | B11 | > 5
12 | B12 | > 5
13 | B13 | > 5
14 | B14 | > 5
15 | B15 | > 5
16 | B16 | > 5
17 | B17 | > 5
18 | B18 | > 5
